{"source": "the nanobody polyreactivity screen of Harvey et al. (2022)"}
{"experiment": "yeast display, Sf9 membrane polyspecificity reagent, FACS + sequencing; frameworks hold sequencing errors", "how_it_was_run": "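Galactose induction of a Saccharomyces cerevisiae BJ5465 synthetic nanobody display library ran 36–48 hours. The cells were then stained for 1 hour at 4 °C with 10% biotinylated, detergent-solubilized Sf9 membrane reagent, pulled down on streptavidin microbeads and FACS-sorted into low and high (top ~1%) gates on expression and reagent-binding fluorescence. Labels for polyreactivity follow the gate of origin.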"}
{"sequence": "QVQLVESGGGLVQAGGSLRLSCAASGLIFYIYAMGRYREAPGKERELVAAISSSGGSTFYADSVKGRFTISRDNAKNTVYLQMNSLKPEDTAVYYCAAYYGGGYGFHRDYWGQGTQVTVSS", "polyreactivity (PSR sort gate)": "high polyreactivity"}
{"sequence": "QVQLVESGGGLVQAGGSLRLSCAASGLIFYIYMGWYRQAPGKESELVAVISSSGNSTYYADSVKGRFTISRYNAKNTVYLQLNSLKPEDTAVYYCNASAYYPPSSSRYYYWGQGTQVTVSS", "polyreactivity (PSR sort gate)": "low polyreactivity"}
{"sequence": "QVQLVESGGGLVQAGGSLRLSCAASGLIFYKYAMGWYRPAPGKERELVAAISSSGGSTYYADSVKGRFTISRDNAKNTVYLQMNSLKPEDTAVYYCAARTNRRGYNYWGQGTQVTVSS", "polyreactivity (PSR sort gate)": "high polyreactivity"}
{"sequence": "QVQLVESGGGLVQAGGSLRLSCAASGLIFYKYAMGWYRQAPGKERELVAAITSGGSTNYADSVKGRFTISRDNAKNTVYLQMNSLKPEDTAVYYCNADYNLYLVVRWWYPPVDYWGQGTQVTVSS", "polyreactivity (PSR sort gate)": "low polyreactivity"}
{"sequence": "QVQLVESGGGLVQAGGSLRLSCAASGLIFYLYAMGWYRQAPGKERELVAAITSGGGSTYYADSVKGRFTHSRDHAKNTVYLQMNSLKPEDTGVYYCAARLVLYITVVYEDDYWGQGTQVTVSS", "polyreactivity (PSR sort gate)": "low polyreactivity"}
{"sequence": "QVQLVESGGGLVQAGGSLRLSCAASGLIFYPNGMGWYRQAPGKERELVAAITYSDGSTYYADSVKGRCTISRDNAKNTVYLQMNSLKPEDTAVYYCTARWGYRRGYWGQGTQVTVSS", "polyreactivity (PSR sort gate)": "high polyreactivity"}
{"sequence": "QVQLVESGGGLVQAGGSLRLSCAASGLIFYRNAMGWYRQAPGKERELVAAIRFSTGSTYYADSVKGRFTISRDNAKKTVYLQMNSLKPEDTAVYYCAADRRYYWYNYWGQGTQVTVSS", "polyreactivity (PSR sort gate)": "high polyreactivity"}
{"sequence": "QVQLVESGGGLVQAGGSLRLSCAASGLIFYTYAMGWYRQAPGKERELVAGISRSGTSTRYADSVKGRFTISRDNAKNTVYLQMNSLKPEDTAVYYCNAVGRSKHGYSRSYYWGQGTQVTVSS", "polyreactivity (PSR sort gate)": "high polyreactivity"}
{"sequence": "QVQLVESGGGLVQAGGSLRLSCAASGLIFYTYAMGWYRQAPGKERELVATISGRGGSTYYADSVKGRFTISRDNAKNTVYLQMNSLKPEDTAVYYCNVVPSTYYQYDYWGQGTQVTVSS", "polyreactivity (PSR sort gate)": "high polyreactivity"}
{"sequence": "QVQLVESGGGLVQAGGSLRLSCAASGLIFYYYALAWYRQAPGKERELVAAITWTAGSTSYADSVKGRFTISRDNAKNTVYLQMNRLKPEDTAVYYCAADYRHDTFSNEYDYWGQGTQVTVSS", "polyreactivity (PSR sort gate)": "low polyreactivity"}
{"sequence": "QVQLVESGGGLVQAGGSLRLSCAASGLIIPKYAMGWYRQAPGKEREFVAAISGRGGTTYYADSVKGRFTISRDNAKNTVYLQMYSLKPEDTAVYYCAAGGPWANIYGNGYWGQGTQVTVSS", "polyreactivity (PSR sort gate)": "high polyreactivity"}
{"sequence": "QVQLVESGGGLVQAGGSLRLSCAASGLILDGYAMGWYRQAPGKERELVAAITRSGGRTYYADSVKGRFTISRDNAKNTVYLQMNSLKPEDTAVYYCAALGWSGRYSYDYWGQGTQVTVSS", "polyreactivity (PSR sort gate)": "high polyreactivity"}
{"sequence": "QVQLVESGGGLVQAGGSLRLSCAASGLILKYYAMGWYRQAPGKEREFVAAISSSGTRTYADSVKGRFTISRDNAKNTVYLQMNSLKPEDTAVYYCAKDYRVWVAATIAHDYWGQGTQVTVSS", "polyreactivity (PSR sort gate)": "low polyreactivity"}
{"sequence": "QVQLVESGGGLVQAGGSLRLSCAASGLILNYYTMGWYRQAPGKERELVATISSSTGSTYYADSVKGRFTISRDNAKNTVYLQMNSLKPEDTAVYYCASDHWSYWQIYDYWGQGTQVTVSS", "polyreactivity (PSR sort gate)": "low polyreactivity"}
{"sequence": "QVQLVESGGGLVQAGGSLRLSCAASGLILQYYVMGWYIQAPGKERELVAAITRSGGGTYYADSVKGRFTISRDNAKNTVYLQMNSLKPEDSAVYYCAAQRQYGKFDYWGQGTQVTVSS", "polyreactivity (PSR sort gate)": "high polyreactivity"}
{"sequence": "QVQLVESGGGLVQAGGSLRLSCAASGLILYTYAMGWYRQAPGKERELVAAINSGGRTYYADSVKGRFTISRDNAKNTVYLQMNSLKPEDTAVYYCAADYGSRVRGFNYWGQGTQVTVSS", "polyreactivity (PSR sort gate)": "low polyreactivity"}
{"sequence": "QVQLVESGGGLVQAGGSLRLSCAASGLILYWYAMGWYRQAPGKERELVAVITRSGRTNYADSVKGRFTSSRDNAKNTVYLQMNSLKPEDTAVYYCAADYYTSFYSWPPYDYWGQGTQVTVSS", "polyreactivity (PSR sort gate)": "low polyreactivity"}
{"sequence": "QVQLVESGGGLVQAGGSLRLSCAASGLISTYYVMGWYRQAPGQERELVAAIRASDASTYYADSVKGRFTISRDNAKNPVYLQMHSLKPEDTAVYYCAAETGFYSRFAFHRYNYWGQGTQVTVSS", "polyreactivity (PSR sort gate)": "low polyreactivity"}
{"sequence": "QVQLVESGGGLVQAGGSLRLSCAASGLIYSAYAMGWYRQAPGKEREFVAAISRSGGITFYADSVKGRFTISRDNAKNTVYLQMNSLKPEDTAVYYCAARRSKYRRGGGYYWGQGTQVTVSS", "polyreactivity (PSR sort gate)": "high polyreactivity"}
{"sequence": "QVQLVESGGGLVQAGGSLRLSCAASGLKFAHYAMGWYRQAPGKERELVAAISRSGGRTRYADSVKGRFTISRDQAKNTVYLQMNSLKAEDTAVYYCAAVGSVNYDADFDYWGQGTQVTVSS", "polyreactivity (PSR sort gate)": "high polyreactivity"}
{"sequence": "QVQLVESGGGLVQAGGSLRLSCAASGLNFRQYAMGWYRKAPGKERELVAAITVTGGTTYYADSVKGRFTISRDNAKNTVYLQMNSLKPEDTAVYYCATRANYVGWTQFGHGYDYWGQGTQVTVSS", "polyreactivity (PSR sort gate)": "low polyreactivity"}
{"sequence": "QVQLVESGGGLVQAGGSLRLSCAASGLNFYYYAMGWYRQAPGKESELVAAISGGGSTYYADSVKGRFTISRDNAKNTVYLQMNSLKPEDTAVYYCAASYWYPSWLYDYWGQGTQVTVSS", "polyreactivity (PSR sort gate)": "low polyreactivity"}
{"sequence": "QVQLVESGGGLVQAGGSLRLSCAASGLNLKRYAMGCYTQAPGKERELVAAISKSGGSTYYADSVKGRFTISRDNAKNTVYLQMNSLKPEDTAVYYCAADSYNLWDDYWGQGTQVTVSS", "polyreactivity (PSR sort gate)": "low polyreactivity"}
{"sequence": "QVQLVESGGGLVQAGGSLRLSCAASGLPFQEYAMGWYRQAPGKEREFVAAISASGGSTYYADSVKGRFTISRDNAKNTVYLQMNSLKPEDTAVYYCNKYGTVGYGSYGYWGQGTQVTVSS", "polyreactivity (PSR sort gate)": "high polyreactivity"}
{"sequence": "QVQLVESGGGLVQAGGSLRLSCAASGLSFQSYAMGWYRQAPGKERELVAAISRRSGSTYYADSVKGRFTISRDNAKNTVYLQMNSLKPEDTAVYYCTTRRGERGYWGQGTQVTVSS", "polyreactivity (PSR sort gate)": "high polyreactivity"}
{"sequence": "QVQLVESGGGLVQAGGSLRLSCAASGLSFYPNGMGWYREAPGKERELVAAITYSDGSTYYADSVKGRFSISRDNAKNTVYLQMNSLKPEDTAVYYGNRVTRWTYNYWGQGTQVTVSS", "polyreactivity (PSR sort gate)": "high polyreactivity"}
{"sequence": "QVQLVESGGGLVQAGGSLRLSCAASGLTFADYAMGWYRQAPVKERELVAAISSSDTSTYYADSVKGRFTISRDNAKNTVYLQMNSLKPEDTAVYYCAADEGYVWPYYGWGFGKYDYWGQGTQVTVSS", "polyreactivity (PSR sort gate)": "low polyreactivity"}
{"sequence": "QVQLVESGGGLVQAGGSLRLSCAASGLTFAGYAMGWYRQAPGKERELVAAITSGGSTYYADSVKGRFTISRDNAKNTVYLQMNSLKPEDTAVYYCAARRVRKALVGYGYWGQGTQVTVSS", "polyreactivity (PSR sort gate)": "high polyreactivity"}
{"sequence": "QVQLVESGGGLVQAGGSLRLSCAASGLTFANYAIGWYRQAPGKERELVAAISTWSGGSTYYADSVKGRFTISRDNAKNTVYLQMNSLKPEDTAVYYCAARRYSRGRLPYDYWGQGTQVTVSS", "polyreactivity (PSR sort gate)": "high polyreactivity"}
{"sequence": "QVQLVESGGGLVQAGGSLRLSCAASGLTFANYAMGWYRQAPGKERELVAAISTWSGGSTYYADSVKGRFTISRDHAKNTVYLQMNSLKPEDTAVYYCNTDRYWGKGDYWGQGTQVTVSS", "polyreactivity (PSR sort gate)": "high polyreactivity"}
{"sequence": "QVQLVESGGGLVQAGGSLRLSCAASGLTFAPYVMGWYRQAPGKERELVPAISRSGGSTYYADSVKGRFTISRDNAKNTVYLQMNSLKPEDTAVYYCNRDVSLSAFDYWGQGTQVTVSS", "polyreactivity (PSR sort gate)": "high polyreactivity"}
{"sequence": "QVQLVESGGGLVQAGGSLRLSCAASGLTFARNAMGWYRQAPGKERELVAAISSGGSTYYADSVKGRFTISRDNAKNPVYLQMNSLKPEDTAVYYCAARPIPRYYGKFWRVDYWGQGTQVTVSS", "polyreactivity (PSR sort gate)": "high polyreactivity"}
{"sequence": "QVQLVESGGGLVQAGGSLRLSCAASGLTFASNALGWYRQAPWKERELVAGISRTGTTTYYADSVKGRFTISRDNAKNTVYLQMNSLKPEDTAVYYCAASKQAVKYRSQRYYYWGQGTQVTVSS", "polyreactivity (PSR sort gate)": "high polyreactivity"}
{"sequence": "QVQLVESGGGLVQAGGSLRLSCAASGLTFASYAMGWYRQAPGKERDLVARISRSGGSTYYADSVKGRFTISRDNAKNTVYLQMNSLKPEDTAVYYCAADYIFRRYPVGGIYDYDYWGQGTQVTVSS", "polyreactivity (PSR sort gate)": "high polyreactivity"}
{"sequence": "QVQLVESGGGLVQAGGSLRLSCAASGLTFASYAMGWYRQSPGKERELVARISRSGGSTYYADSVKGRFTISRDNAKNTVYLQMNSLKPEDTAVYYCAARNSYGNWRYYYWGQGTQVTVSS", "polyreactivity (PSR sort gate)": "high polyreactivity"}
{"sequence": "QVQLVESGGGLVQAGGSLRLSCAASGLTFAYNGLGWYRQAPGKEGELVAEISASGASTYYADSVKGRFTISRDNAKNTVYLQMNSLKPEDTAVYYCAAPAPYDGHYSIYSWAYTDDYWGQGTQVTVSS", "polyreactivity (PSR sort gate)": "low polyreactivity"}
{"sequence": "QVQLVESGGGLVQAGGSLRLSCAASGLTFAYYAMGWYRQAPGKERELVAAISYSGGSTYYADSVKGRFTISRDNANKTVYLQMNSLKPEDTAVYYCNRDRNSGFYRRYGYWGQGTQVTVSS", "polyreactivity (PSR sort gate)": "high polyreactivity"}
{"sequence": "QVQLVESGGGLVQAGGSLRLSCAASGLTFAYYAMGWYRQAPGKETELVAAISWNGARTYYADSVKGRFTISRDNSKNTVYLQMNSLKPEDTAVYYCAAVRSASSWQYIWLKYYYWGQGTQVTVSS", "polyreactivity (PSR sort gate)": "high polyreactivity"}
{"sequence": "QVQLVESGGGLVQAGGSLRLSCAASGLTFAYYDMGWYIQAPGKEREMVAAITSGGTTNYADSVKGSFTISRDNANNTVYFQMNSLKPEDTAVYYCNADYYSRIVGVRIYEYWGQGTQVTVSS", "polyreactivity (PSR sort gate)": "low polyreactivity"}
{"sequence": "QVQLVESGGGLVQAGGSLRLSCAASGLTFDGNAMGWYRQAPGKERELVAAITSSGGNTYYADSVKGRFTISRDNAKNTVYLQMNSLKPEDTAVYYCAAGGYRWSARTWSWVRYDYWGQGTQVTVSS", "polyreactivity (PSR sort gate)": "high polyreactivity"}
